In PMC5829251, “NAD^+ analog reveals PARP-1 substrate-blocking mechanism and allosteric communication from catalytic center to DNA-binding domains” (Nature Communications, 2018):

Target: PARP-1 WT (human) (UniProt P09874)
Assay: fluorescence polarization
Settings: 250 mM NaCl, FP affinity: 12 mM Hepes pH 8.0, 250 mM NaCl, 4% glycerol, 5.7 mM beta-mercaptoethanol, 0.05 mg/ml BSA, RT, 5 nM probe, FP competition: same but 60 mM KCl, 8 mM

Sequence of PARP-1 WT (human) (P09874 whole entry): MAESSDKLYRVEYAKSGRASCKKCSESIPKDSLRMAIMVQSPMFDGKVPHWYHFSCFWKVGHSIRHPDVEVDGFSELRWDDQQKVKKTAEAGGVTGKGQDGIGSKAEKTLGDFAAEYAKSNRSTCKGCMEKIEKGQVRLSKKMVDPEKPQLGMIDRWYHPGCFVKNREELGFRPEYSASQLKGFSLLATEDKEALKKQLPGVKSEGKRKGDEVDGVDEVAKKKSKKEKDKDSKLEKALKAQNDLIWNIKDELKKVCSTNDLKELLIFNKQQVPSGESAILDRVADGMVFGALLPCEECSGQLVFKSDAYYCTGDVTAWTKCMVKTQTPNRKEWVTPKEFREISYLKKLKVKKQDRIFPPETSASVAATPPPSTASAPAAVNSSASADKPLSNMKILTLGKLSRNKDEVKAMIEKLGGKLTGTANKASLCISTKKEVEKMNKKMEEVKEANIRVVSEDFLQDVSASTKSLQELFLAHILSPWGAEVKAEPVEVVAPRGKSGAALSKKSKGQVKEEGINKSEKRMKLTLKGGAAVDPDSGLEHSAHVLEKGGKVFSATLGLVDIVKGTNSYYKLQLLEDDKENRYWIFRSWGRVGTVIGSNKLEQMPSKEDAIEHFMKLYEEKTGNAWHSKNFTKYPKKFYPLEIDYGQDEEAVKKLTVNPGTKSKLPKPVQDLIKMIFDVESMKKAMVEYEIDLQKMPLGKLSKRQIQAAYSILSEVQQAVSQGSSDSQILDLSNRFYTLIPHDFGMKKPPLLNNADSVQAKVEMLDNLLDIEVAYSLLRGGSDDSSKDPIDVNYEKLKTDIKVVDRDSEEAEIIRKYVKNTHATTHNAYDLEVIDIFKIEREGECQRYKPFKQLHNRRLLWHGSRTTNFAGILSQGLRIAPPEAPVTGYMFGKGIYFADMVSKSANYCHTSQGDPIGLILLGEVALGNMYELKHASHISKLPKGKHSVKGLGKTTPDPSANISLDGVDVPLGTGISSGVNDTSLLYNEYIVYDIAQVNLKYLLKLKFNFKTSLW

GCTGAGCTTCTGGTGAAGCTCAGCTCGCGGCAGCTGGTGCTGCCGCGA [nick dumbbell DNA, FAM]
binding signal (fold higher affinity than without BAD) (100 uM BAD): 10 | binding signal (100 uM benzamide, scale: fold): 1
